Each block holds one molecule with its values, some of them ahead of it.
What was measured:
[1] = target: pCRY-PHR D393S (amino acids 1-504) (Chlamydomonas reinhardtii); assay: SEC; Superdex 200 Increase 10/300 GL, under light exclusion at 4 °C, 50 mM Tris pH 7.8, 100 mM NaCl, 1 mM ATP, 1 mM MgCl2; samples at OD450 = 1; apparent masses from calibration
[2] = target: T1, pCRY-PHR (plant cryptochrome pCRY, PHR domain) (Chlamydomonas reinhardtii, UniProt Q42696, D393S); assay: UV-vis absorbance and time-resolved UV-vis difference spectroscopy of purified protein; type: binding; conditions: 50 mM phosphate pH 7.8, 100 mM NaCl, 3 mM ATP, 1% glycerol, 10 °C, with or without 2 mM DTT; co-purified chromophore; time-resolved spectra at 13 °C without DTT
T1 construct: gene CPH1; PHR domain, amino acids 1-504, N-terminal His6 and C-terminal StrepII tags (printed for D393S), E. coli BL21(DE3), pET-28a(+); theoretical mass 59 kDa, wild type monomeric in the dark

[3] = target: Region II mutations (V367M, K368E, Y399S, S401F, P405L) placed in the CRY2PHR background; assay: two-hybrid; BD-CRY2PHR (1-498) variants and AD-CIB1, AH109 x Y187, beta-galactosidase reporter (Miller Units, ONPG), dark for 2 h
[4] = target: T2, CRY2PHR (residues 1-498 of CRY2, lacking the CCE), Gal4BD fusion, wild type (Arabidopsis thaliana, UniProt Q96524 1-498); assay: two-hybrid; BD-CRY2PHR (1-498) variants and AD-CIB1, AH109 x Y187, beta-galactosidase reporter (Miller Units, ONPG), light for 2 h; conditions: partners not purified
T2 construct: Cryptochrome 2 (CRY2), Arabidopsis thaliana, photolyase homology region, residues 1-498; also called BD-CRY2PHR; pDBTrp-CRY2PHR; source: yeast two-hybrid fusion (AH109 x Y187)
T2 sequence (Q96524 1-498): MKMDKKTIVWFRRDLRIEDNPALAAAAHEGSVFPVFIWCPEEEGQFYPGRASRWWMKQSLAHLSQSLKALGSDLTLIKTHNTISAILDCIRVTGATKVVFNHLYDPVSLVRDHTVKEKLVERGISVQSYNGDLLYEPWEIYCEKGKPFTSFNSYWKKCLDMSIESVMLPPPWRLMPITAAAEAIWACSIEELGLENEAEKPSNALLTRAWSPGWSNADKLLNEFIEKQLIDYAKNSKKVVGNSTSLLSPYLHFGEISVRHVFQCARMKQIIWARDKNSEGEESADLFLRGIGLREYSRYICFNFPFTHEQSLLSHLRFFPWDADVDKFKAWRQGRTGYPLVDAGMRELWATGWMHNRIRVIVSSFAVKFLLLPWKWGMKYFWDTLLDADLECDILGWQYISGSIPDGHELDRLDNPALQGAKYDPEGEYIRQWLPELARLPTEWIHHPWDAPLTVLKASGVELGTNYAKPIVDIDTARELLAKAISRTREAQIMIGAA

T1 sequence (Q42696 entry or part of it D393S): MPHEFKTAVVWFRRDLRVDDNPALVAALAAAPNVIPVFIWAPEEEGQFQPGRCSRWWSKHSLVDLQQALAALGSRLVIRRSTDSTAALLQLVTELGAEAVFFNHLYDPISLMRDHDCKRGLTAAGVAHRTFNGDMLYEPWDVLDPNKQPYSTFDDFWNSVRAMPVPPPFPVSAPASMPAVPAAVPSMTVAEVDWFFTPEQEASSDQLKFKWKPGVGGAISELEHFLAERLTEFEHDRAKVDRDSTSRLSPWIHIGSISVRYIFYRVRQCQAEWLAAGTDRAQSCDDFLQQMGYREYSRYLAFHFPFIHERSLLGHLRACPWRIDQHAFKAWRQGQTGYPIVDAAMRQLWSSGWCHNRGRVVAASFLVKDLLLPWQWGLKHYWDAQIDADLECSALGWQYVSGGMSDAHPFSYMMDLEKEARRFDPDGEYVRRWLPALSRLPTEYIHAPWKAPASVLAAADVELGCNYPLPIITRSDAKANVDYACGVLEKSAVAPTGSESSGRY

stoichiometry N [1]: 2
Molecule: pCRY-PHR D393S (amino acids 1-504) (domain or fragment)

Molecule: Cc1cc2nc3c(=O)[nH]c(=O)nc-3n(C[C@H](O)[C@H](O)[C@H](O)COP(=O)(O)OP(=O)(O)OC[C@H]3O[C@@H](n4cnc5c(N)ncnc54)[C@H](O)[C@@H]3O)c2cc1C [FAD]
UV-vis absorbance and time-resolved UV-vis difference spectroscopy of purified p [2]: The D393S mutant forms homomers in the dark with oxidized FAD bound

fold higher basal (dark) interaction than wild-type CRY2PHR (beta-galactosidase reporter) [3]: 4 to 7 fold
B1: CRYPTOCHROME-… BASIC-HELIX-LOOP-HELIX 1 (CIB1), Gal4AD fusion (natural protein)
chain: MNGAIGGDLLLNFPDMSVLERQRAHLKYLNPTFDSPLAGFFADSSMITGGEMDSYLSTAGLNLPMMYGETTVEGDSRLSISPETTLGTGNFKKRKFDTETKDCNEKKKKMTMNRDDLVEEGEEEKSKITEQNNGSTKSIKKMKHKAKKEENNFSNDSSKVTKELEKTDYIHVRARRGQATDSHSIAERVRREKISERMKFLQDLVPGCDKITGKAGMLDEIINYVQSLQRQIEFLSMKLAIVNPRPDFDMDDIFAKEVASTPMTVVPSPEMVLSGYSHEMVHSGYSSEMVNSGYLHVNPMQQVNTSSDPLSCFNNGEAPSMWDSHVQNLYGNLGV

fold increase of interaction (beta-galactosidase reporter) in light over dark [4]: 4 fold
B2: CRYPTOCHROME-INTERACTING BASIC-HELIX-LOOP-HELIX 1 (CIB1), Gal4AD fusion (natural protein, Arabidopsis thaliana, UniProt Q8GY61 1-335, looked up)
chain: B1 chain
notes: CIB1, transcription factor, Arabidopsis thaliana; also called GalAD-CIB1; Gal4AD-CIB1; source: yeast two-hybrid fusion (MaV203; Y187, mated to AH109)

Reference: article PMC12212125, “Constitutively active Arabidopsis cryptochrome two alleles identified using yeast selection and deep mutational scanning” (The Journal of Biological Chemistry, 2025)
